Reference: publication PMC12815460, “A high-resolution analysis of arrestin2 interactions responsible for CCR5 endocytosis” (eLife, 2026)
Each block holds one molecule with its values, some of them ahead of it.

Experiments:
[1] = biological target: CCR5pp3 phosphopeptide C-terminal phosphopeptide (Homo sapiens) (UniProt P51681); details: cited from earlier work
[2] = biological target: arrestin2^1-418 (full-length human arrestin2) (human) (UniProt P49407)
AP2β2 (Homo sapiens) = AP2β2 (Homo sapiens) (UniProt P63010); test: EPR; details: cited from earlier work
AP2β2 = biological target: T1, AP2β2 (Homo sapiens, UniProt P63010); test: SEC
T1 chain: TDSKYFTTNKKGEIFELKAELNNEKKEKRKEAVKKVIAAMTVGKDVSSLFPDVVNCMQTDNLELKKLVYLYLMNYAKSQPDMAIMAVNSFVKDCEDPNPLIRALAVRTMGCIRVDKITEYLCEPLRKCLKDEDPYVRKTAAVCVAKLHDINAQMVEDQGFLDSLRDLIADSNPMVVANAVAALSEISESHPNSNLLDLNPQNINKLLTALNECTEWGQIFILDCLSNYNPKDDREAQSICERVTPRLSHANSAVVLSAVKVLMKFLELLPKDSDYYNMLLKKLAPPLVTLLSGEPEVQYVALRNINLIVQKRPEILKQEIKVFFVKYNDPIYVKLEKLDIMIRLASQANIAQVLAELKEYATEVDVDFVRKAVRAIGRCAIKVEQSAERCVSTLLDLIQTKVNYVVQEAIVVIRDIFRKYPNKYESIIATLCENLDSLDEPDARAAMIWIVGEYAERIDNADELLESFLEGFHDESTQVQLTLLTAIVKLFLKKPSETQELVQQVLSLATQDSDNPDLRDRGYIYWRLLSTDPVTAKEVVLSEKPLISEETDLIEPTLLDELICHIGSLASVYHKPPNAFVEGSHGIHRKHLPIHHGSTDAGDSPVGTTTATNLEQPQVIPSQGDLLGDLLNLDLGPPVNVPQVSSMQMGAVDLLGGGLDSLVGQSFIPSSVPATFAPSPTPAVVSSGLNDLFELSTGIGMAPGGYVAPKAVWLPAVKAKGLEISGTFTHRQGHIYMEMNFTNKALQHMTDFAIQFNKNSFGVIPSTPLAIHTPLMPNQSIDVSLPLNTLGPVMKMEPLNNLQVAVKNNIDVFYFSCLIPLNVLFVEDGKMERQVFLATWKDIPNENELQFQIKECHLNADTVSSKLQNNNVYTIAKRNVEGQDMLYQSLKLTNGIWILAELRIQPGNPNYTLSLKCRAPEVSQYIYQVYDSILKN

[3] = biological target: T2, clathrin-N (clathrin heavy chain 1 N-terminal domain, residues 1–364) (UniProt Q00610 1-364); test: NMR titration; 50 μM Ile-δ1-13CH3,2H-labelled arrestin2^1-393 observed (1H-13C HMQC), unlabelled clathrin-N up to 600 μM; I377 13C shifts fitted with a 1:1 isotherm; apparent; 20 mM HEPES, 150 mM NaCl, pH 7.4, 303 K; details: both partners purified
T2 construct: the construct used here is 1–364; Tag removed with 3C protease; pETM33 may add GST besides the His tag (surmise); Used 15N,2H-labelled or unlabelled; also called clathrin heavy chain N-terminal domain; CLTC Clathrin propeller; source: E. coli BL21 (DE3), purified (Ni-NTA, reverse IMAC, gel filtration)
T2 sequence (looked up): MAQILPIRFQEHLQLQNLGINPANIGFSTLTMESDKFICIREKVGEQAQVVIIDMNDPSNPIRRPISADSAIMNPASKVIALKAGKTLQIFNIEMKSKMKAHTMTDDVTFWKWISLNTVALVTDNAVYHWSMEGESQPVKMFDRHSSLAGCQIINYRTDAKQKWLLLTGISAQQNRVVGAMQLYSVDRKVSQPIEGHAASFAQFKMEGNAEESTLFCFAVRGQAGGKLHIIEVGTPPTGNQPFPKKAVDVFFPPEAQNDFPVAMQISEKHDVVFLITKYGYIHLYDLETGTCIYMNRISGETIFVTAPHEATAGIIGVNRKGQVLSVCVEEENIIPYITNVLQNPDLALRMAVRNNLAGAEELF

[4] = biological target: T2, clathrin-N (clathrin heavy chain 1 …); test: NMR titration; 50 μM 15N,2H-labelled clathrin-N observed (1H-15N HSQC-TROSY, 900 MHz), unlabelled arrestin2 construct added up to equimolar, no phosphopeptide; 20 mM HEPES, 150 mM NaCl, pH 7.4, 303 K; details: both partners purified

Sequence of CCR5pp3 phosphopeptide C-terminal phosphopeptide (Homo sapiens) (P51681 332-352): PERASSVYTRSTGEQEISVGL

Molecule: arrestin2 (from UniProt P49407)
Kd [1]: 200 µM

protection of CCR5pp6-activated arrestin2^1-418 from trypsin: proteolysis midpoint at 1-, 2- and 5-molar equivalents of AP2β2^701-937 (10 to 30 min) [2]: 30 min
Molecule: AP2β2^701-937 (C-terminal domain of the β2 subunit of the AP2 complex, residues 701–937) (from UniProt P63010 701-937) (domain or fragment)

Molecule: arrestin β20 peptide 383-402 (from UniProt P49407)
Kd (AP2β2 (Homo sapiens)): 9 µM

Kd (AP2β2): 44 µM
B1: arrestin2 (protein)
chain: MGDKGTRVFKKASPNGKLTVYLGKRDFVDHIDLVDPVDGVVLVDPEYLKERRVYVTLTCAFRYGREDLDVLGLTFRKDLFVANVQSFPPAPEDKKPLTRLQERLIKKLGEHAYPFTFEIPPNLPCSVTLQPGPEDTGKACGVDYEVKAFCAENLEEKIHKRNSVRLVIRKVQYAPERPGPQPTAETTRQFLMSDKPLHLEASLDKEIYYHGEPISVNVHVTNNTNKTVKKIKISVRQYADICLFNTAQYKCPVAMEEADDTVAPSSTFCKVYTLTPFLANNREKRGLALDGKLKHEDTNLASSTLLREGANREILGIIVSYKVKVKLVVSRGGLLGDLASSDVAVELPFTLMHPKPKEEPPHREVPENETPVDTNLIELDTNDDDIVFEDFARQRLKGMKDDKEEEEDGTGSPQLNNR
modifications: CCR5pp4 phosphopeptide

Kd (AP2β2): 40 µM
B2: arrestin2 (protein)
chain: B1 chain
modifications: CCR5pp3 phosphopeptide

Kd (AP2β2): 9 µM
B3: arrestin2 (protein)
chain: B1 chain
modifications: CCR5pp6 phosphopeptide

Kd [3]: 104 ± 9 µM
stoichiometry N [4]: 1
B4: arrestin2^1-393 (truncated human arrestin2, residues 1–393) (domain or fragment)
chain: MGDKGTRVFKKASPNGKLTVYLGKRDFVDHIDLVDPVDGVVLVDPEYLKERRVYVTLTCAFRYGREDLDVLGLTFRKDLFVANVQSFPPAPEDKKPLTRLQERLIKKLGEHAYPFTFEIPPNLPCSVTLQPGPEDTGKACGVDYEVKAFLAENLEEKIHKRNSVRLVIRKVQYAPERPGPQPTAETTRQFLMSDKPLHLEASLDKEIYYHGEPISVNVHVTNNTNKTVKKIKISVRQYADIVLFNTAQYKVPVAMEEADDTVAPSSTFSKVYTLTPFLANNREKRGLALDGKLKHEDTNLASSTLLREGANREILGIIVSYKVKVKLVVSRGGLLGDLASSDVAVELPFTLMHPKPKEEPPHREVPENETPVDTNLIELDTNDDDIVFEDFAR
modifications: Cys replacements inferred from the printed arrestin2-ΔCBL sequence (L150, V242, V251, S269), assumed to share the parent construct of Isaikina et al. 2023; not stated in this text for 1-393. Isotope …
